US20230417748A1 (GREEN CROSS, published 2023)

Legend:
Assay in all cases: ELISA (FIG. 7)
[1] = target: T1, RBD-V367F (Sino biologics, 40592-V08H1) (SARS-CoV-2, UniProt P0DTC2 319-541)
T1 construct: domain: RBD

[2] = target: T2, RBD-N439K (Sino biologics, 40592-V08H14) (SARS-CoV-2, UniProt P0DTC2 319-541)
T2 construct: domain: RBD

[3] = target: T3, RBD-S477N (Sino biologics, 40592-V08H46) (SARS-CoV-2, UniProt P0DTC2 319-541)
T3 construct: domain: RBD

[4] = target: T4, RBD-T478I (Sino biologics, 40592-V08H30) (SARS-CoV-2, UniProt P0DTC2 319-541)
T4 construct: domain: RBD

[5] = target: T5, RBD-P479S (Sino biologics, 40592-V08H57) (SARS-CoV-2, UniProt P0DTC2 319-541)
T5 construct: domain: RBD

[6] = target: T6, RBD-N501Y (Sino biologics, 40592-V08H82) (SARS-CoV-2, UniProt P0DTC2 319-541)
T6 construct: domain: RBD

[7] = target: T7, RBD-A522S (Sino biologics, 40592-V08H21) (SARS-CoV-2, UniProt P0DTC2 319-541)
T7 construct: domain: RBD

[8] = target: Spike-D614G (Sino biologics, 40589-V08B4) (SARS-CoV-2, UniProt P0DTC2 16-1213)

Measured: binding result

B1: M5-4 (antibody, V domains shown)
VH: EVQLVESGGGLVKPGGSLRLSCAASGFTFSSRGMSWVRQAPGKGLEWVSTISFGDIYTYYPDSVKGRFTISRDNAKNSLYLQMNSLRAEDTAVYYCARPNDGYFDYWGQGTLVTVSS
VL: DIQMTQSPSSLSASVGDRVTITCKASQSVSNDVAWYQQKPGKAPKLLIYYASNRYTGVPSRFSGSGSGTDFTLTISSLQPEDFATYYCQQSYSAPYTFGGGTKVEIKR
binds: [1] | [2] | [3] | [4] | [5] | [6] | [7] | [8]
